Assay results as given in US20170129957A1 (BERGENBIO ASA, published 2017).

B1: mouse anti-Axl monoclonal antibody 1H12 (antibody, V domains shown)
VH: EVKLVESGGDLVKPGGSLKLSCAASGFTFSSYGMSWVRQTPDKRLEWVATISSGGSYTYYPDSVKGRFTISRDNAKNTLYLQMSSLKSEDTAMYYCARHPIYYTYDDTMDYWGQGTSVTVSS
VL: DIVLTQSPAIMAASPGEKVTMTCSASSSVSSGNFHWYQQKPGTSPKLWIYRTSNLASGVPARFSGSGSGTSYSLTISSMEAEDAATYYCQQWSGYPWTFGGGTKLEIK
notes: also called MAb 1H12; m 1H12
B2: chimeric (mouse variable/human constant IgG1) monoclonal antibody ch1H12 (antibody, V domains shown)
VH: B1 VH
VL: B1 VL
notes: also called chimeric MAb ch1H12; chimeric monoclonal antibody 1H12; not shown: constant domains of the human IgG1 heavy chain; human light chain constant domain (C-kappa)

Assays:
[1] = molecular target: T1, recombinant human Axl-Fc chimera (R&D Systems, Cat. no. 154-AL) (human, UniProt P30530 26-451); test: SPR (Biacore 3000), rhAxl-Fc immobilised on CM5 at 190 RU, MAb 1H12 at 1.3-666.7 nM, 25 °C, BIAevaluation fit [table under the sensorgrams]
T1 construct: Bought reagent; also called rhAxl-Fc; rhAxl; not shown: human IgG1 Fc domain
T1 sequence: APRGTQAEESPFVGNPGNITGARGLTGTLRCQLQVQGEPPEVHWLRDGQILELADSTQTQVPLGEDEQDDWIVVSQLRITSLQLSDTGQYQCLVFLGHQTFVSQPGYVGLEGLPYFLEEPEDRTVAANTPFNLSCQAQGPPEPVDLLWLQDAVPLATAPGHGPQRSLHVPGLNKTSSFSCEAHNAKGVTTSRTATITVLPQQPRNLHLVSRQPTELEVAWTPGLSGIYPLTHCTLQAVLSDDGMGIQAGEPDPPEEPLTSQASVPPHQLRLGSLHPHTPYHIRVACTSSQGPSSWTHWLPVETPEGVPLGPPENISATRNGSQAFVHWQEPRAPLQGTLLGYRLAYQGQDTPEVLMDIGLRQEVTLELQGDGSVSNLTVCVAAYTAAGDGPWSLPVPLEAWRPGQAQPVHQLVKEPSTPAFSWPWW

[2] = molecular target: T1, recombinant human Axl-Fc chimera (R&D …); test: SPR (Biacore 3000, 25 °C), calculated as ln2/koff
[3] = molecular target: T2, recombinant human Mer-Fc chimera (R&D Systems, Cat. no. 891-MR) (human, UniProt Q12866 21-499, limits assumed); test: SPR (Biacore 3000), rhMer-Fc immobilised on CM5 at 303.6 RU, MAb 1H12 injected
T2 construct: Bought soluble Fc chimera; also called rhMer-Fc; rhMer; Fc part of the bought chimera not given
T2 sequence (looked up): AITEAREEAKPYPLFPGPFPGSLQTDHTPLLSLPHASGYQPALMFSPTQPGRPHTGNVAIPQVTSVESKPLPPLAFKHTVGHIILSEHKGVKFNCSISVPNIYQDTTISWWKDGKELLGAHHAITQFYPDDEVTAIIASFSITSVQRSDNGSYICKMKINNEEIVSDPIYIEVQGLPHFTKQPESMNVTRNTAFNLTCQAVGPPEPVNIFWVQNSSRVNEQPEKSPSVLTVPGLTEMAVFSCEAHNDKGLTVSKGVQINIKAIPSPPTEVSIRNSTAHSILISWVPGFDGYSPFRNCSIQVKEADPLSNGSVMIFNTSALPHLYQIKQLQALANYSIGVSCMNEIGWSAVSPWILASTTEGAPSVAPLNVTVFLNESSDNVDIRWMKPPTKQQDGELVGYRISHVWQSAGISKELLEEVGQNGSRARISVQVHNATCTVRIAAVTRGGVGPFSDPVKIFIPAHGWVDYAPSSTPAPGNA

[4] = molecular target: T3, recombinant human Tyro3/Dtk-Fc chimera (R&D Systems, Cat. no. 859-DK) (human, UniProt Q06418 41-428); test: SPR (Biacore 3000), rhTyro3/Dtk-Fc immobilised on CM5 at 364.0 RU, MAb 1H12 injected
T3 construct: Bought soluble Fc chimera; also called rhTyro3-Fc; rhTyro3; Fc part of the bought chimera not given
T3 sequence: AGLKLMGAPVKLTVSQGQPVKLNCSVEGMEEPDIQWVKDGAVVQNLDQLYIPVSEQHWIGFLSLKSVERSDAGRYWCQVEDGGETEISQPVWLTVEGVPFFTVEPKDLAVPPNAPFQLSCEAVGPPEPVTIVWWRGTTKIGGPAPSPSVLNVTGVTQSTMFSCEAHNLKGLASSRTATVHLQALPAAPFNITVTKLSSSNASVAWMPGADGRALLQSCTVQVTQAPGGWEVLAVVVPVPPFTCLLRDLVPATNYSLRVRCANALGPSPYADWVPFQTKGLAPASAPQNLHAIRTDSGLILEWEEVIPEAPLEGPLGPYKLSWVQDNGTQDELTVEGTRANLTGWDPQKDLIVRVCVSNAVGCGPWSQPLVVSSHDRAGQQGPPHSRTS

[5] = molecular target: T1, recombinant human Axl-Fc chimera (R&D …); test: SPR (Biacore 3000, 25 °C), rhAxl-Fc immobilised at 190 RU, 1H12 1.3-666.7 nM, KD as koff/kon
[6] = molecular target: T4, human Axl receptor of Axl+ human cell lines (MDA-MB-231, NCI-H1299, HeLa) (human, UniProt P30530 26-894); test: flow cytometry on MDA-MB-231 cells, detection with APC-conjugated donkey anti-mouse IgG (H+L) F(ab')2
T4 construct: also called Axl+ cells; Axl-positive cells
T4 sequence: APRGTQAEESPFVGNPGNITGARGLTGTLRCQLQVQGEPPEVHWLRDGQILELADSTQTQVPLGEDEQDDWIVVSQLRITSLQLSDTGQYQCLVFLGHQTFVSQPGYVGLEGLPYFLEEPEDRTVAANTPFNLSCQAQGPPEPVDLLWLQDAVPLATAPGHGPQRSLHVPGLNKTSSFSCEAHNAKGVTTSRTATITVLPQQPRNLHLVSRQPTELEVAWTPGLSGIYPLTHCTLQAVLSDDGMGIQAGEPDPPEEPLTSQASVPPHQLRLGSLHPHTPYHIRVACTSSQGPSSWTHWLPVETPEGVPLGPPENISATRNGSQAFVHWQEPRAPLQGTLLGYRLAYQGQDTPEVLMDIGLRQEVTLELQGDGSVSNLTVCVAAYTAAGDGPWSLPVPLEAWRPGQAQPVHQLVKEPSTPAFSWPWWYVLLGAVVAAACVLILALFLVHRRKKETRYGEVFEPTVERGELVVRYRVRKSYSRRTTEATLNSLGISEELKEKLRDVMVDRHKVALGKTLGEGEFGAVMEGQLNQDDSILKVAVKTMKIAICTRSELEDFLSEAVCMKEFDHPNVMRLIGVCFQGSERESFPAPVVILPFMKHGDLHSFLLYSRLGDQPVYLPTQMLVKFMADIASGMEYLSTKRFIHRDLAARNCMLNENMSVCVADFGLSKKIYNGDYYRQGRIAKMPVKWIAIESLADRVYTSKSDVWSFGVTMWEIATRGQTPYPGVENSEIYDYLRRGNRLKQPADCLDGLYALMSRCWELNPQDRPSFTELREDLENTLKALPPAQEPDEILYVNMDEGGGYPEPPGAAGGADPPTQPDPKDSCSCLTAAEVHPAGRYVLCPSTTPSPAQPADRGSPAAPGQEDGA

[7] = molecular target: T1, recombinant human Axl-Fc chimera (R&D …); test: SPR (Biacore 3000, 25 °C), rhAxl-Fc immobilised at 190 RU, 1H12 1.3-666.7 nM
[8] = molecular target: T5, recombinant mouse Axl-Fc chimera (R&D Systems, Cat. no. 854-AX) (mouse, UniProt Q00993 19-443); test: SPR (Biacore 3000), rmAxl-Fc immobilised on CM5 at 2,115.9 RU, MAb 1H12 injected [upper panel 1H12]
T5 construct: Bought soluble Fc chimera; also called rmAxl-Fc; rmAxl; Fc part of the bought chimera not given
T5 sequence: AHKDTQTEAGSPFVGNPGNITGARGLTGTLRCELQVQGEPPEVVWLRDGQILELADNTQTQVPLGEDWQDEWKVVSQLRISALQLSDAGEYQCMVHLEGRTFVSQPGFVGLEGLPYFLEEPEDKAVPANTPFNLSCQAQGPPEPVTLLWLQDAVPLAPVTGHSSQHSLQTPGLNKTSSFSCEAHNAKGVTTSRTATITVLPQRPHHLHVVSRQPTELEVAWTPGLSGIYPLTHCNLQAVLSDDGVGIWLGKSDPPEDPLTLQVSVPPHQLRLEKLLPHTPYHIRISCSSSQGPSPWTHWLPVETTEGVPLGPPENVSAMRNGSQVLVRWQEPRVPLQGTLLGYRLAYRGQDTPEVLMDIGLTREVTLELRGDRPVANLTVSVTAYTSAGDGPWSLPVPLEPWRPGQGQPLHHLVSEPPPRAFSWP

[9] = molecular target: T4, human Axl receptor of Axl+ human cell …; test: flow cytometry on MDA-MB-231 cells, detection with APC-conjugated donkey anti-human IgG (H+L) F(ab')2
[10] = molecular target: T1, recombinant human Axl-Fc chimera (R&D …); test: SPR (Biacore 3000, 25 °C), rhAxl-Fc immobilised at 190 RU, ch1H12 1.3-666.7 nM, 1:1 Langmuir model
[11] = molecular target: T1, recombinant human Axl-Fc chimera (R&D …); test: SPR (Biacore 3000, 25 °C), rhAxl-Fc immobilised at 190 RU, ch1H12 1.3-666.7 nM, 1:1 Langmuir model, KD as koff/kon
[12] = molecular target: T1, recombinant human Axl-Fc chimera (R&D …); test: SPR (Biacore 3000), rhAxl-Fc immobilised on CM5 at 190 RU, ch1H12 at 1.3-666.7 nM, 25 °C, 1:1 Langmuir fit [table under the sensorgrams]
[13] = molecular target: T1, recombinant human Axl-Fc chimera (R&D …); test: SPR (Biacore 3000, 25 °C), comparison of KD with parental murine 1H12

Binder | kon [1] [M⁻¹ s⁻¹] | half-life of the 1H12/Axl complex [2] [h] | binding result [3] | binding result [4] | Kd [5] [nM] | EC50 (read off the curve) [6] [nM] | koff [7] [s⁻¹] | binding result [8] | EC50 (read off the curve) [9] [nM] | koff [10] [s⁻¹] | half-life of the ch1H12/Axl complex [2] [h] | Kd [11] [nM] | kon [12] [M⁻¹ s⁻¹] | fold lower KD than the parental murine antibody 1H12 [13] [fold]
B1 | 214000 | 18 | no binding (tested: 10 µg/mL) | no binding (tested: 10 µg/mL) | 0.0498 | ~0.9 | 1.07e-05 | no binding (tested: 10 µg/mL) | – | – | – | – | – | –
B2 | – | – | – | – | – | – | – | – | ~0.6 | 2.99e-06 | 64.4 | 0.011 | 271000 | 4.5
